Measured values from patent US20100081787A1 (FIBREX MEDICAL RESEARCH AND DEVELOPMENT, published 2010).
Numbered stars: 1 amine (or outer) side, 2 acyl side, 3 side chain; on linkers, the order of the positions; unused ones are H or OH. Square brackets hold non-standard residues; d marks the D form. Ends that are not written are not given here. ACHC(1S,2R) = O=C([C@H]1CCCC[C@H]1N[*:1])[*:2]

Molecular target: T1, vascular endothelial (VE) cadherin (human, UniProt P33151 48-784)
T1 sequence (looked up): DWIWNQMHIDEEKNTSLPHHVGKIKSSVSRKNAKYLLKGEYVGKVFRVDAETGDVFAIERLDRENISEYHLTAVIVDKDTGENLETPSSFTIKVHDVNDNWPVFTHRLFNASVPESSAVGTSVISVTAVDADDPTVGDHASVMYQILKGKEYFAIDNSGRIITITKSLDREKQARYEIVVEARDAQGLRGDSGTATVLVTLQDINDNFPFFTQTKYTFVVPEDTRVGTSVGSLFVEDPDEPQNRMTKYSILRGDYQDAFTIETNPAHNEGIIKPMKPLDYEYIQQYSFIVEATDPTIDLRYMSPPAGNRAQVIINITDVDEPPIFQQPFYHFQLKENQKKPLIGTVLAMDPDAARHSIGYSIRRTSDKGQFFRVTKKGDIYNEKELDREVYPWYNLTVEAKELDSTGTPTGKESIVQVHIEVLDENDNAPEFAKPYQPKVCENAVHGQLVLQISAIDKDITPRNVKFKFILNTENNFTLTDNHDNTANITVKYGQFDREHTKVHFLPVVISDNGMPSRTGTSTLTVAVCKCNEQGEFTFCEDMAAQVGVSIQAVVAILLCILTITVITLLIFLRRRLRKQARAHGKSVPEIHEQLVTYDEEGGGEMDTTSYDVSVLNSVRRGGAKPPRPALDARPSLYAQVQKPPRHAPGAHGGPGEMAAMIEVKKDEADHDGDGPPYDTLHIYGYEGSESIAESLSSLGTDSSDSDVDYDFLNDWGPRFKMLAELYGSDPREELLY
Assay: cell-based or functional assay

GHRP[ACHC(1S,2R)]ISGG [Gly-His-Arg-Pro-(1S, 2R)Achc-Ile-Ser-Gly-Gly]
Relative RhoA stimulation compared to unstimulated control: 2.2 relative to unstimulated control
